B1: ALDH8A1 (parent)
chain: WSSRSPQERSRVLNQVADLLEQSL
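Note: lentivirally expressed fusions sorted by FACS into six bins by GFP to DsRed ratio, PSI derived from sequencing read proportions per bin multiplied by bin number.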

The variants in this series derive from B1. Kind of series: protein stability index of a GFP-peptide fusion (GPS, HEK-293T) (PSI 1-6); higher = more stable. The settings on record: c terminus: a fixed tail appended.
With WSSRSPQERSRVLQQVADLLEQSL [N14Q], the protein stability index was 2.41.

Regarding WSSRSPQERSRVLKQVADLLEQSL [N14K], the protein stability index amounted to 1.97.

For WSSRSPQERSRVLEQVADLLEQSL [N14E], the protein stability index is 3.24.

As to WSSRSPQERSRVLYQVADLLEQSL [N14Y], the protein stability index is 4.15.

Consider WSSRSPQERSRVLRQVADLLEQSL [N14R], for which the protein stability index is 3.47.

WSSRSPQERSRVLVQVADLLEQSL [N14V]: the protein stability index was determined as 2.1.

For WSSRSGQERSRVLNQVADLLEQSL [P6G], the protein stability index came to 2.85.

Turning to WSSRSTQERSRVLNQVADLLEQSL [P6T], the protein stability index amounted to 3.1.

For the variant WSSRSYQERSRVLNQVADLLEQSL [P6Y], the protein stability index came out at 1.98.

Regarding WSSRSFQERSRVLNQVADLLEQSL [P6F], the protein stability index came to 1.84.

Turning to WSSRSRQERSRVLNQVADLLEQSL [P6R], the protein stability index stood at 2.31.

Consider WSSRSCQERSRVLNQVADLLEQSL [P6C], for which the protein stability index worked out at 2.19.

Consider WSSRSKQERSRVLNQVADLLEQSL [P6K], for which the protein stability index worked out at 2.42.

With WSSRSPQERSPVLNQVADLLEQSL [R11P], the protein stability index was found to be 2.58.

WSSRSPQERSYVLNQVADLLEQSL [R11Y]: the protein stability index stood at 2.22.

Take WSSRSPQERSFVLNQVADLLEQSL [R11F]: the protein stability index was 2.43.

Turning to WSSRSPQERSAVLNQVADLLEQSL [R11A], the protein stability index was 3.4.

Turning to WSSRSPQERSTVLNQVADLLEQSL [R11T], the protein stability index is 2.48.

Consider WSSRSPQERSEVLNQVADLLEQSL [R11E], for which the protein stability index worked out at 3.27.

As for WSSRSPQERSHVLNQVADLLEQSL [R11H], the protein stability index came to 1.89.

For the variant WSSRSPQERSQVLNQVADLLEQSL [R11Q], the protein stability index was 2.38.

WSSRSPQERSDVLNQVADLLEQSL [R11D]: the protein stability index came to 3.37.

On to WSSRSPQERSNVLNQVADLLEQSL [R11N], for which the protein stability index is 2.48.

Take WSSRSPQERSKVLNQVADLLEQSL [R11K]: the protein stability index turned out to be 1.99.

Take WSSRSPQERSIVLNQVADLLEQSL [R11I]: the protein stability index turned out to be 2.21.

Regarding WSSRSPQERSRVLNQVADPLEQSL [L19P], the protein stability index was 4.63.

As for WSSRSPQERSRVLNQVADDLEQSL [L19D], the protein stability index turned out to be 3.72.

As to WSSRSPQERSRVLNQVADFLEQSL [L19F], the protein stability index turned out to be 2.23.

On to WSSRSPQERSRVLNQVADMLEQSL [L19M], for which the protein stability index stood at 2.52.

As to WSSRSPQERSRVLNQVADYLEQSL [L19Y], the protein stability index worked out at 3.15.

On to WSSRSPMERSRVLNQVADLLEQSL [Q7M], for which the protein stability index was 2.23.

On to WSSRSPFERSRVLNQVADLLEQSL [Q7F], for which the protein stability index turned out to be 1.77.

Consider WSSRSPGERSRVLNQVADLLEQSL [Q7G], for which the protein stability index stood at 2.7.

For the variant WSSRSPHERSRVLNQVADLLEQSL [Q7H], the protein stability index was 2.31.

In the case of WSSRSPWERSRVLNQVADLLEQSL [Q7W], the protein stability index came out at 2.37.

As to WSSRSPTERSRVLNQVADLLEQSL [Q7T], the protein stability index worked out at 2.15.

As to WSSRSPQERSRVLNQVTDLLEQSL [A17T], the protein stability index worked out at 3.1.

Take WSSRSPQERSRVLNQVRDLLEQSL [A17R]: the protein stability index is 1.9.

Turning to WSSRSPQERSRVLNQVQDLLEQSL [A17Q], the protein stability index was 2.5.

On to WSSRSPQERSRVLNQVKDLLEQSL [A17K], for which the protein stability index is 3.17.

As to WSSRSPQERSRVLNQVGDLLEQSL [A17G], the protein stability index came to 3.47.

For the variant WSSRSPQERSRVLNQVSDLLEQSL [A17S], the protein stability index was 3.02.

Take WSSRSPQERSRVLNQVMDLLEQSL [A17M]: the protein stability index was determined as 1.85.

For the variant WSSRSPQERSRVLNQVPDLLEQSL [A17P], the protein stability index came to 3.53.

In the case of WSSRSPQERSRVLNQVVDLLEQSL [A17V], the protein stability index was 2.69.

On to WSSRWPQERSRVLNQVADLLEQSL [S5W], for which the protein stability index came to 1.59.

For WSSRTPQERSRVLNQVADLLEQSL [S5T], the protein stability index turned out to be 2.57.

As for WSSRLPQERSRVLNQVADLLEQSL [S5L], the protein stability index is 2.74.

As for WSSRRPQERSRVLNQVADLLEQSL [S5R], the protein stability index stood at 2.87.

For WSSRHPQERSRVLNQVADLLEQSL [S5H], the protein stability index came to 2.14.

Regarding WSSRPPQERSRVLNQVADLLEQSL [S5P], the protein stability index is 2.57.

With WSSRCPQERSRVLNQVADLLEQSL [S5C], the protein stability index was 2.56.

Turning to WSSRGPQERSRVLNQVADLLEQSL [S5G], the protein stability index came to 2.05.

As to WSSRIPQERSRVLNQVADLLEQSL [S5I], the protein stability index worked out at 2.4.

Consider WSSRSPQERPRVLNQVADLLEQSL [S10P], for which the protein stability index came to 2.49.

As for WSSRSPQERGRVLNQVADLLEQSL [S10G], the protein stability index was 3.8.

In the case of WSSRSPQERYRVLNQVADLLEQSL [S10Y], the protein stability index was 2.37.

On to WSSRSPQERWRVLNQVADLLEQSL [S10W], for which the protein stability index was determined as 2.82.

As for WSSRSPQERLRVLNQVADLLEQSL [S10L], the protein stability index was 2.25.

Regarding WSSRSPQERSRVLNQVADLLEQSD [L24D], the protein stability index was 4.17.

For the variant WSSRSPQERSRVLNQVADLLEQSG [L24G], the protein stability index worked out at 3.16.

Regarding WSSRSPQERSRVLNQVADLLEQSC [L24C], the protein stability index came to 2.9.

For the variant WSSRSPQERSRVLNQVADLLEQSW [L24W], the protein stability index was 2.19.

For WSSRSPQERSRVLNQVADLLEQSP [L24P], the protein stability index stood at 4.16.

For the variant WSSRSPQERSRVLNQVADLLEQSA [L24A], the protein stability index was 2.88.

Turning to WSSRSPQERSRVLNQVADLLEQSF [L24F], the protein stability index was 2.03.

Take WSSRSPQERSRQLNQVADLLEQSL [V12Q]: the protein stability index amounted to 3.45.

WSSRSPQERSRMLNQVADLLEQSL [V12M]: the protein stability index came to 2.31.

Consider WSSRSPQERSRRLNQVADLLEQSL [V12R], for which the protein stability index was found to be 2.71.

In the case of WSSRSPQERSRGLNQVADLLEQSL [V12G], the protein stability index is 3.48.

Turning to WSSRSPQERSRNLNQVADLLEQSL [V12N], the protein stability index amounted to 3.99.

On to WSSRSPQERSRYLNQVADLLEQSL [V12Y], for which the protein stability index is 2.74.

WSSRSPQERSRTLNQVADLLEQSL [V12T]: the protein stability index amounted to 3.47.

For the variant WSSRSPQERSRDLNQVADLLEQSL [V12D], the protein stability index worked out at 3.85.

With WSSRSPQERSRLLNQVADLLEQSL [V12L], the protein stability index came out at 2.06.

With WSSRSPQERSRKLNQVADLLEQSL [V12K], the protein stability index came to 3.07.

Consider WSSRSPQERSRILNQVADLLEQSL [V12I], for which the protein stability index was determined as 1.98.

In the case of WSSRSPQERSRVLNQVADLKEQSL [L20K], the protein stability index worked out at 4.64.

With WSSRSPQERSRVLNQVADLFEQSL [L20F], the protein stability index came to 2.75.

As to WSSRSPQERSRVLNQVADLGEQSL [L20G], the protein stability index amounted to 3.64.

WSSRSPQERSRVLNQVADLDEQSL [L20D]: the protein stability index worked out at 4.64.

Consider WSSRSPQERSRVLNQVADLYEQSL [L20Y], for which the protein stability index amounted to 3.37.

As for WSSRSPQERSRVLNQVADLQEQSL [L20Q], the protein stability index turned out to be 3.68.

As for WSSRSPQERSRVLNQVADLLELSL [Q22L], the protein stability index was found to be 1.65.

Turning to WSSRSPQERSRVLNQVADLLEDSL [Q22D], the protein stability index was 3.63.

For WSSRSPQERSRVLNQVADLLEKSL [Q22K], the protein stability index was determined as 2.27.

As to WSSRSPQERSRVLNQVADLLEMSL [Q22M], the protein stability index amounted to 1.83.

WSSRSPQERSRVLNQVADLLEISL [Q22I]: the protein stability index was determined as 2.01.

Regarding WSSRSPQERSRVLNQVADLLEESL [Q22E], the protein stability index came out at 2.88.

Regarding WSSRSPQERSRVLNQVADLLESSL [Q22S], the protein stability index was found to be 3.1.

For WSSRSPQERSRVLNQVADLLECSL [Q22C], the protein stability index worked out at 1.68.

Take WSSRSPQERSRVLNQVADLLEYSL [Q22Y]: the protein stability index was determined as 2.33.

For the variant WSSRSPQERSRVLNQVADLLERSL [Q22R], the protein stability index was found to be 2.72.

On to WSSRSPQERSRVLNQVADLLEGSL [Q22G], for which the protein stability index was determined as 2.98.

The values are drawn from the supplement of paper PMC10567573.
